This is an account of results in US6558661 (Genentech, dated 2003).

To fix the notation:
B1: murine IFN-γ receptor-IgG-1 immunoadhesin (mIFNγR-IgG-1) (Fc fusion, UniProt P15261 26-254, looked up, not shown: a dimerising Fc or GST)
chain: ALTSTEDPEPPSVPVPTNVLIKSYNLNPVVCWEYQNMSQTPIFTVQVKVYSGSWTDSCTNISDHCCNIYEQIMYPDVSAWARVKAKVGQKESDYARSKEFLMCLKGKVGPPGLEIRRKKEEQLSVLVFHPEVVVNGESQGTMFGDGSTCYTFDYTVYVEHNRSGEILHTKHTVEKEECNETLCELNISVSTLDSRYCISVDGISSFWQVRTEKSKDVCIPPFHDDRKDS
B2: human IFN-γ receptor-IgG-1 immunoadhesin (hIFNγR-IgG-1) (Fc fusion, not shown: a dimerising Fc or GST)
chain: EMGTADLGPSSVPTPTNVTIESYNMNPIVYWEYQIMPQVPVFTVEVKNYGVKNSEWIDACINISHHYCNISDHVGDPSNSLWVRVKARVGQKESAYAKSEEFAVCRDGKIGPPKLDIRKEEKQIMIDIFHPSVFVNGDEQEVDYDPETTCYIRVYNVYVRMNGSEIQYKILTQKEDDCDEIQCQLAIPVSSLNSQYCVSAEGVLHVWGVTTEKSKEVCITIFNSSIKG
B3: recombinant human IFN-γ (ligand, UniProt P01579 24-166, looked up)
chain: QDPYVKEAENLKKYFNAGHSDVADNGTLFLGILKNWKEESDRKIMQSQIVSFYFKLFKNFKDDQSIQKSVETIKEDMNVKFFNSNKKKRDDFEKLTNYSVTDLNVQRKAIHELIQVMAELSPAAKTGKRKRSQMLFRGRRASQ
modifications: radioiodinated with 125I using lactoperoxidase in the binding assays and ligand blots; unlabeled as competitor and in cell assays
notes: also called hIFN-γ
B4: recombinant murine IFN-γ (ligand, UniProt P01580 23-155, looked up)
chain: HGTVIESLESLNNYFNSSGIDVEEKSLFLDIWRNWQKDGDMKILQSQIISFYLRLFEVLKDNQAISNNISVIESHLITTFFSNSKAKKDAFMSIAKFEVNNPQVQRQAFNELIRVVHQLLPESSLRKRKRSRC
modifications: radioiodinated with 125I using lactoperoxidase in the binding assays and ligand blots; unlabeled as competitor and in cell assays
notes: also called mIFN-γ

In assay [1] the target is B4. Description: cell-based or functional assay.
Assay [2] has as its target B3. Nature of the assay: cell-based or functional assay.
The target in assay [3] is B1. Nature of the assay: competition binding assay with [125I]mIFN-γ on immobilized mIFNγR-IgG (data not shown). Here is the method: (§1) IFNv binding assays. The binding of IFNγR-IgGs to IFN-γ was analyzed essentially as described [Ashkenazi et al., *Proc. Natl. Acad. Sci. USA* 88: 10535–10539 (1991)]. Each IFNγR-IgG (1 μg/ml) was immobilized onto microtiter wells coated with goat anti-human IgG Fc antibody. […] Nonspecific binding was determined by omitting IFNγR-IgGs.
(§2) Binding of IFNγR-IqG to IFN-γ. We investigated the binding of the human and murine immunoadhesins to IFN-γ by equilibrium binding analysis (FIG. 2). […] 135: 300–305 (1985); Ucer, et al, Int. J. Cancer 36: 103–108 (1985)].

For assay [4], the target named is B2. Description: equilibrium binding of [125I]hIFN-γ to immunoadhesin immobilized on anti-human IgG Fc coated wells, Scatchard analysis. Here is the method:
as §1, §2

Assay [5] deals with B2. Nature of the assay: competition binding assay with [125I]hIFN-γ on immobilized hIFNγR-IgG (data not shown). Here is the method:
as §1, §2

Assay [6] deals with B1. Nature of the assay: equilibrium binding of [125I]mIFN-γ to immunoadhesin immobilized on anti-human IgG Fc coated wells, Scatchard analysis. Here is the method: as §1, §2

Turning to B1, in assay [1], the “inhibition of mIFN-γ antiviral effect in EMCV-infected mouse L929 cells, IC50” value is roughly 10 nM and the “inhibition of mIFN-γ induction of class I MHC antigen H-2Kk in mouse L929 cells, IC50” value was roughly 10 nM.

Regarding B2, in assay [2], the “inhibition of hIFN-γ antiviral effect in EMCV-infected human A549 cells, IC50” value is roughly 8 nM and the “inhibition of hIFN-γ induction of ICAM-1 in human HeLa cells, half-maximal inhibition (IC50)” value was roughly 13 nM.

For B3, the binding result in assay [3] is “no binding”. In addition, the Kd in assay [4] was 1.5 nM.

Consider B4, for which the binding result in assay [5] is recorded as “no binding”. In addition, the Kd in assay [6] turned out to be 3.3 nM.

One may read the Kd as a measure of binding affinity in units of concentration. Read a low Kd as a tighter complex.
